The labels stand for the following.
B1: HDV Ribozyme (parent)
chain: GGCCGGCAUGGUCCCAGCCUCCUCGCUGGCGCCGGCUGGGCAACAUUCCGAGGGGACCGUCCCCUCGGUAAUGGCGAAUGGGACCCA

The variants in the data set derive from B1. Briefly: self-cleavage, relative activity (ratio to wild type); higher = more cleavage; co-transcriptional.
As for G1C U12A, the self-cleavage was 0. The figure for G1C U12G is 0.145; for G2C G54C it is 0.0208. G1U U79G: the self-cleavage was 0.539. In the case of G2U G10A, the self-cleavage turned out to be 0. For G2U G10C, the self-cleavage was found to be 0.0621. The figure for G1C C7G is 0.0875; for G1A G25C it is 0; for G1C G38C it is 0.

On to G1C G38U, for which the self-cleavage was 0.0396.

As to G1U C58G, the self-cleavage was 0.318. Regarding G2A U60C, the self-cleavage was determined as 0.354. Regarding G1C C18G, the self-cleavage was 0. Take G1A G39A: the self-cleavage came to 0.141.

In the case of G2U C84A, the self-cleavage worked out at 0.0219.

G1C G81U: the self-cleavage was determined as 0.192. As for G1C G81C, the self-cleavage came to 0.119. Turning to G1C G81A, the self-cleavage was found to be 0. As for G1C U65C, the self-cleavage stood at 0.128. As for G1U G17C, the self-cleavage is 0.341. For G1C C24U, the self-cleavage amounted to 0.0489. With G2A G10A, the self-cleavage amounted to 0.0256. As for G2C C66A, the figure is 0.0913; as for G2A G59A, 0.208; as for G2C C3G, 0. Consider G1U G68U, for which the self-cleavage came to 0.287. As for G2U C7G, the figure is 0; as for G2C G73U, 0.0683; as for G1U A87U, 0.507. As to G2A G5U, the self-cleavage turned out to be 0.0453. With G1C U47G, the self-cleavage amounted to 0.128. The figure for G2C C84U is 0.0181; for G1C A51U it is 0.222. Turning to G2A C86G, the self-cleavage amounted to 0.0755. G2A U46C: the self-cleavage turned out to be 0.109. With G1C C4A, the self-cleavage is 0. As to G1U U27C, the self-cleavage came to 0.26. Take G2A U65C: the self-cleavage was found to be 0.117. The figure for G2A U65G is 0.223. As for G2U C75A, the figure is 0; as for G1A G53A, 0.0449. Consider G1C U23C, for which the self-cleavage was found to be 0.0831. For G1C U23G, the self-cleavage is 0.227. For the variant G2C A78C, the self-cleavage stood at 0.

Consider G1C A8G, for which the self-cleavage was 0.123. Take G2A G39A: the self-cleavage is 0.0171. G1C U46G: the self-cleavage came to 0.119. As for G1C U46A, the self-cleavage is 0.138. In the case of G1U C86A, the self-cleavage came to 0.32. The figure for G2C U37A is 0.0583. With G1U C13G, the self-cleavage came out at 0.369. In the case of G1U A56C, the self-cleavage was determined as 0.494. As to G1C C41G, the self-cleavage turned out to be 0. In the case of G1A G73A, the self-cleavage was determined as 0.128. As for G2C G67U, the figure is 0.026. As to G2A G52C, the self-cleavage is 0.112. The figure for G2A G52A is 0.143; for G1C C32G it is 0; for G1C G10A it is 0.166. As for G1C G10C, the self-cleavage is 0.095. G1U A71U: the self-cleavage is 0.424. For G1U A71G, the self-cleavage came to 0.429.

Turning to G2C C30U, the self-cleavage came out at 0.117. As for G2C A42G, the figure is 0.13; as for G2C A16C, 0.0361. With G1U C26U, the self-cleavage turned out to be 0.222. In the case of G1U C49A, the self-cleavage was found to be 0.502. With G1C G74U, the self-cleavage was found to be 0.133. On to G1C C44A, for which the self-cleavage was determined as 0.353. Take G1C C44G: the self-cleavage was 0.0692. As for G1C C44U, the figure is 0.0615. Take G1C C86U: the self-cleavage stood at 0.262. Regarding G1U U47A, the self-cleavage is 0.295.

Turning to G2A G6A, the self-cleavage was 0.0563. On to G1A U27G, for which the self-cleavage came to 0. As to G1A U20C, the self-cleavage was 0. On to G1A U20A, for which the self-cleavage is 0.0594.

As for G2C U27A, the self-cleavage came out at 0.

Take G1C G28C: the self-cleavage is 0. G1U C41G: the self-cleavage is 0.249. The figure for G1U C41U is 0.228; for G2C A83C it is 0.0302; for G2C A83G it is 0.132. As for G2U A45U, the figure is 0.0554. The figure for G1C C85G is 0.151; for G1C C85U it is 0.266. Consider G2C A8G, for which the self-cleavage worked out at 0.0554. For G2U C85A, the self-cleavage is 0.104. As to G2C U23C, the self-cleavage was 0. Regarding G2C C63U, the self-cleavage was found to be 0.

With G2C C63G, the self-cleavage is 0.0314. Take G1C G80C: the self-cleavage came to 0.0475.

As to G1C C84G, the self-cleavage amounted to 0. As to G1A G74A, the self-cleavage stood at 0.0287. As to G1U A51G, the self-cleavage is 0.514. Turning to G1U A51C, the self-cleavage was determined as 0.231. The figure for G1C C3U is 0.34. For G2U C57U, the self-cleavage came out at 0.0365. G1C U79G: the self-cleavage was 0.0723. As for G1U C7A, the self-cleavage stood at 0.169. Consider G1U C7G, for which the self-cleavage came to 0.332. Turning to G1U G5A, the self-cleavage amounted to 0.445.

For G1C G54A, the self-cleavage worked out at 0.131. The figure for G2A G38U is 0.0373; for G2A G31C it is 0.0354. On to G2U C26U, for which the self-cleavage stood at 0.0852. In the case of G2A U20A, the self-cleavage came to 0.0361. Consider G2A U20G, for which the self-cleavage was 0. As for G2C G5A, the figure is 0.0563; as for G1U U37A, 0.584. As for G1U U37G, the self-cleavage was determined as 0.31. As to G1A U9A, the self-cleavage turned out to be 0.138. Consider G1A U9C, for which the self-cleavage came to 0.369. As for G1A U9G, the figure is 0.302. The figure for G2A C57U is 0.203.

Take G2C U47G: the self-cleavage amounted to 0.0923. Take G1U A70U: the self-cleavage stood at 0.381.

Turning to G2U A51G, the self-cleavage stood at 0.0683. In the case of G2C G40U, the self-cleavage was 0.0409. Consider G2C G40A, for which the self-cleavage was 0.0773.

Take G2C G55C: the self-cleavage came out at 0.0656.

Regarding G2C G55U, the self-cleavage was 0.0346. The figure for G2U A71G is 0.141; for G1C C30U it is 0.0755; for G2A U72A it is 0.053. In the case of G1C C15U, the self-cleavage amounted to 0.0831. Turning to G1U C32U, the self-cleavage amounted to 0.532. In the case of G1U C32G, the self-cleavage amounted to 0.305. As for G2C A45G, the figure is 0.107; as for G2C A45C, 0.0528; as for G2A G34C, 0.0489. Consider G2U C4U, for which the self-cleavage is 0.0755. On to G2U C4A, for which the self-cleavage worked out at 0.

For the variant G2A A8U, the self-cleavage was found to be 0.0432.

Consider G2A A8C, for which the self-cleavage turned out to be 0.106.

Turning to G1U U60C, the self-cleavage is 0.0811. G2A U69A: the self-cleavage was 0.22. G2C G53U: the self-cleavage came out at 0.0665. Consider G1C C36U, for which the self-cleavage is 0.394. Consider G1C A43G, for which the self-cleavage was determined as 0. Turning to G2C C7G, the self-cleavage worked out at 0.0692.

With G2C C7A, the self-cleavage is 0.0268. On to G1U G29A, for which the self-cleavage worked out at 0.336. As to G2C G52U, the self-cleavage amounted to 0.032. G2C G52C: the self-cleavage turned out to be 0. The figure for G2C C19U is 0.0665. For the variant G2C A43G, the self-cleavage was 0.

Take G2C A43U: the self-cleavage came to 0.0297.

As to G2A G53C, the self-cleavage was 0.348. Regarding G2A G53A, the self-cleavage came out at 0.168. For the variant G2A A70U, the self-cleavage came to 0.228. For the variant G2C C62A, the self-cleavage was 0.0462. Turning to G2C C24A, the self-cleavage stood at 0.0791.

For G1A U79G, the self-cleavage is 0.0923. As for G1U G40C, the figure is 0.491; as for G1C G2C, 1.06. Consider G2C G25U, for which the self-cleavage was 0.0702. Turning to G1C G68C, the self-cleavage came out at 0.0978.

With G2A C84A, the self-cleavage came to 0.0519. On to G2A C84U, for which the self-cleavage is 0.119. With G1C C22U, the self-cleavage amounted to 0.148. For G1C U20G, the self-cleavage stood at 0. As to G1C U20C, the self-cleavage stood at 0.0723.

Consider G2A A78C, for which the self-cleavage worked out at 0.0432. Consider G2A A78G, for which the self-cleavage came out at 0.0504.

Regarding G2U A87U, the self-cleavage was found to be 0.0747.

Turning to G1A G29A, the self-cleavage is 0.0615.
